Source: US9314499

Target: T1, Histidine-tagged recombinant human Annexin A2
T1 chain: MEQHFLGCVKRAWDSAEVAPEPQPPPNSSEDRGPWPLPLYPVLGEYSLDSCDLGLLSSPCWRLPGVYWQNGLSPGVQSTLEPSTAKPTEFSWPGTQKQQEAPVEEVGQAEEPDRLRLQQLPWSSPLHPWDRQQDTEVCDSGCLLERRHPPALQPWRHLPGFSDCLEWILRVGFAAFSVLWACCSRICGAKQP

B1: tissue plasminogen activator (protein)
chain: SYQVICRDEKTQMIYQQHQSWLRPVLRSNRVEYCWCNSGRAQCHSVPVKSCSEPRCFNGGTCQQALYFSDFVCQCPEGFAGKCCEIDTRATCYEDQGISYRGTWSTAESGAECTNWNSSALAQKPYSGRRPDAIRLGLGNHNYCRNPDRDSKPWCYVFKAGKYSSEFCSTPACSEGNSDCYFGNGSAYRGTHSLTESGASCLPWNSMILIGKVYTAQNPSAQALGLGKHNYCRNPDGDAKPWCHVLKNRRLTWEYCDVPSCSTCGLRQYSQPQFRIKGGLFADIASHPWQAAIFAKHRRSPGERFLCGGILISSCWILSAAHCFQERFPPHHLTVILGRTYRVVPGEEEQKFEVEKYIVHKEFDDDTYDNDIALLQLKSDSSRCAQESSVVRTVCLPPADLQLPDWTECELSGYGKHEALSPFYSERLKEAHVRLYPSSRCTSQHLLNRTVTDNMLCAGDTRSGGPQANLHDACQGDSGGPLVCLNDGRMTLVGIISWGLGCGQKDVPGVYTKVTNYLDWIRDNMRP
tPA-converted plasmin generation (in vitro plasmin activity assay, fluorogenic substrate D-Val-Leu-Lys-AMC): a combination of rA2 (5 µg/ml) and tPA (2.5 µg/ml) significantly amplified tPA-converted plasmin generation
